By Kd is commonly meant the equilibrium constant for the complex coming apart. A higher Kd goes with lower affinity.

Assay in all cases: EMSA
Conditions in all cases: EMSA: 20 mM HEPES pH 7.3, 150 mM NaCl, 0.5 mM TCEP, 30 min room temperature, 0.5 uM nucleosome or DNA, FRET: 20 mM HEPES pH 7.1, 100 mM NaCl

The target of one data set is MBP-DBD C/EBPalpha (UniProt P53566).
The target in data set [1] is PU.1 ETS Q218H Q218H (mouse) (UniProt P17433).
Data set [2] addresses PU.1 ETS (ETSPU.1) (mouse) (UniProt P17433).

Sequence of MBP-DBD C/EBPalpha (P53566 214-359): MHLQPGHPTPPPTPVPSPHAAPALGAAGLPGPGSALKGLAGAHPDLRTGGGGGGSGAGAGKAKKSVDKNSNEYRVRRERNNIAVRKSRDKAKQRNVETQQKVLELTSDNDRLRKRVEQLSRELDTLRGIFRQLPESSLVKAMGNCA

“TAGGTGCAGGGCCTCTCGGCTGCTGATCTTCAGCTGGTTGCTGAGAGTTGCAGCATTGCTGAGTCTTAGCAATGGATACTTCCCGATTCCCCTCACAAAAATAGGTCAGTCTGTCTGGCTAGTTCTGTACTTGCAGACACAGGGCATGTGGGGTTCCTATTT (double strand) [162 bp CX3CR1 nucleosome]”: the Kd with MBP-DBD C/EBPalpha was 1700 nM. Also, the binding signal (fold reduction in affinity vs WT) in data set [1] was 2.

On to “TAGGTGCAGGGCCTCTCGGCTGCTGATCTTCAGCTGGTTGCTGAGAGTTGCAGCATTGCTGAGTCTTAGCAATGGATACTTCCCGATTCCCCTCACAAAAATAGGTCAGTCTGTCTGGCTAGTTCTGTACTTGCAGACACAGGGCATGTGGGGTTCCTATTT (double strand) [162 bp CX3CR1 nucleosome, 3A H2A (K75A;K76A;T77A)]”, for which the fold reduction in binding affinity (fold reduction in affinity vs WT H2A) in data set [2] was 3.

Sequence “TAGGTGCAGGGCCTCTCGGCTGCTGATCTTCAGCAACTTGCTGAGAGTTGCAGCATTGCTGAGTCTTAGCAATGGATACTTCCCGATTCCCCTCACAAAAATAGGTCAGTCTGTCTGGCTAGTTCTGTACTTGCAGACACAGGGCATGTGGGGTTCCTATTT (double strand) [Cmut CX3CR1 nucleosome]” yielded a dissociation constant Kd in the data set with MBP-DBD C/EBPalpha of 2400 nM. In other words, the single-digit micromolar range.
